According to patent publication US20050042227A1:

Experiments:
Assay in all cases: cell-based or functional assay
LRP = molecular target: LRP
[1] = molecular target: LRP1 receptors on GM244 human Pompe fibroblasts (human) (UniProt Q07954)
[2] = molecular target: mannose-6-phosphate receptor on GM244 human fibroblasts (human) (UniProt O00264)
Chain of mannose-6-phosphate receptor on GM244 human fibroblasts (human) (O00264 whole entry): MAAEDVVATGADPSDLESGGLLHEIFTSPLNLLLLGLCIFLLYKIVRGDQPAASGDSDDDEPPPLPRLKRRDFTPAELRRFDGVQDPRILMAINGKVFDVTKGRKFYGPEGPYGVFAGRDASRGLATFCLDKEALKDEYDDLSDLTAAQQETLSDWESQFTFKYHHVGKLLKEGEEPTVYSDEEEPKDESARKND

Chain of LRP1 receptors on GM244 human Pompe fibroblasts (human) (Q07954 20-4544): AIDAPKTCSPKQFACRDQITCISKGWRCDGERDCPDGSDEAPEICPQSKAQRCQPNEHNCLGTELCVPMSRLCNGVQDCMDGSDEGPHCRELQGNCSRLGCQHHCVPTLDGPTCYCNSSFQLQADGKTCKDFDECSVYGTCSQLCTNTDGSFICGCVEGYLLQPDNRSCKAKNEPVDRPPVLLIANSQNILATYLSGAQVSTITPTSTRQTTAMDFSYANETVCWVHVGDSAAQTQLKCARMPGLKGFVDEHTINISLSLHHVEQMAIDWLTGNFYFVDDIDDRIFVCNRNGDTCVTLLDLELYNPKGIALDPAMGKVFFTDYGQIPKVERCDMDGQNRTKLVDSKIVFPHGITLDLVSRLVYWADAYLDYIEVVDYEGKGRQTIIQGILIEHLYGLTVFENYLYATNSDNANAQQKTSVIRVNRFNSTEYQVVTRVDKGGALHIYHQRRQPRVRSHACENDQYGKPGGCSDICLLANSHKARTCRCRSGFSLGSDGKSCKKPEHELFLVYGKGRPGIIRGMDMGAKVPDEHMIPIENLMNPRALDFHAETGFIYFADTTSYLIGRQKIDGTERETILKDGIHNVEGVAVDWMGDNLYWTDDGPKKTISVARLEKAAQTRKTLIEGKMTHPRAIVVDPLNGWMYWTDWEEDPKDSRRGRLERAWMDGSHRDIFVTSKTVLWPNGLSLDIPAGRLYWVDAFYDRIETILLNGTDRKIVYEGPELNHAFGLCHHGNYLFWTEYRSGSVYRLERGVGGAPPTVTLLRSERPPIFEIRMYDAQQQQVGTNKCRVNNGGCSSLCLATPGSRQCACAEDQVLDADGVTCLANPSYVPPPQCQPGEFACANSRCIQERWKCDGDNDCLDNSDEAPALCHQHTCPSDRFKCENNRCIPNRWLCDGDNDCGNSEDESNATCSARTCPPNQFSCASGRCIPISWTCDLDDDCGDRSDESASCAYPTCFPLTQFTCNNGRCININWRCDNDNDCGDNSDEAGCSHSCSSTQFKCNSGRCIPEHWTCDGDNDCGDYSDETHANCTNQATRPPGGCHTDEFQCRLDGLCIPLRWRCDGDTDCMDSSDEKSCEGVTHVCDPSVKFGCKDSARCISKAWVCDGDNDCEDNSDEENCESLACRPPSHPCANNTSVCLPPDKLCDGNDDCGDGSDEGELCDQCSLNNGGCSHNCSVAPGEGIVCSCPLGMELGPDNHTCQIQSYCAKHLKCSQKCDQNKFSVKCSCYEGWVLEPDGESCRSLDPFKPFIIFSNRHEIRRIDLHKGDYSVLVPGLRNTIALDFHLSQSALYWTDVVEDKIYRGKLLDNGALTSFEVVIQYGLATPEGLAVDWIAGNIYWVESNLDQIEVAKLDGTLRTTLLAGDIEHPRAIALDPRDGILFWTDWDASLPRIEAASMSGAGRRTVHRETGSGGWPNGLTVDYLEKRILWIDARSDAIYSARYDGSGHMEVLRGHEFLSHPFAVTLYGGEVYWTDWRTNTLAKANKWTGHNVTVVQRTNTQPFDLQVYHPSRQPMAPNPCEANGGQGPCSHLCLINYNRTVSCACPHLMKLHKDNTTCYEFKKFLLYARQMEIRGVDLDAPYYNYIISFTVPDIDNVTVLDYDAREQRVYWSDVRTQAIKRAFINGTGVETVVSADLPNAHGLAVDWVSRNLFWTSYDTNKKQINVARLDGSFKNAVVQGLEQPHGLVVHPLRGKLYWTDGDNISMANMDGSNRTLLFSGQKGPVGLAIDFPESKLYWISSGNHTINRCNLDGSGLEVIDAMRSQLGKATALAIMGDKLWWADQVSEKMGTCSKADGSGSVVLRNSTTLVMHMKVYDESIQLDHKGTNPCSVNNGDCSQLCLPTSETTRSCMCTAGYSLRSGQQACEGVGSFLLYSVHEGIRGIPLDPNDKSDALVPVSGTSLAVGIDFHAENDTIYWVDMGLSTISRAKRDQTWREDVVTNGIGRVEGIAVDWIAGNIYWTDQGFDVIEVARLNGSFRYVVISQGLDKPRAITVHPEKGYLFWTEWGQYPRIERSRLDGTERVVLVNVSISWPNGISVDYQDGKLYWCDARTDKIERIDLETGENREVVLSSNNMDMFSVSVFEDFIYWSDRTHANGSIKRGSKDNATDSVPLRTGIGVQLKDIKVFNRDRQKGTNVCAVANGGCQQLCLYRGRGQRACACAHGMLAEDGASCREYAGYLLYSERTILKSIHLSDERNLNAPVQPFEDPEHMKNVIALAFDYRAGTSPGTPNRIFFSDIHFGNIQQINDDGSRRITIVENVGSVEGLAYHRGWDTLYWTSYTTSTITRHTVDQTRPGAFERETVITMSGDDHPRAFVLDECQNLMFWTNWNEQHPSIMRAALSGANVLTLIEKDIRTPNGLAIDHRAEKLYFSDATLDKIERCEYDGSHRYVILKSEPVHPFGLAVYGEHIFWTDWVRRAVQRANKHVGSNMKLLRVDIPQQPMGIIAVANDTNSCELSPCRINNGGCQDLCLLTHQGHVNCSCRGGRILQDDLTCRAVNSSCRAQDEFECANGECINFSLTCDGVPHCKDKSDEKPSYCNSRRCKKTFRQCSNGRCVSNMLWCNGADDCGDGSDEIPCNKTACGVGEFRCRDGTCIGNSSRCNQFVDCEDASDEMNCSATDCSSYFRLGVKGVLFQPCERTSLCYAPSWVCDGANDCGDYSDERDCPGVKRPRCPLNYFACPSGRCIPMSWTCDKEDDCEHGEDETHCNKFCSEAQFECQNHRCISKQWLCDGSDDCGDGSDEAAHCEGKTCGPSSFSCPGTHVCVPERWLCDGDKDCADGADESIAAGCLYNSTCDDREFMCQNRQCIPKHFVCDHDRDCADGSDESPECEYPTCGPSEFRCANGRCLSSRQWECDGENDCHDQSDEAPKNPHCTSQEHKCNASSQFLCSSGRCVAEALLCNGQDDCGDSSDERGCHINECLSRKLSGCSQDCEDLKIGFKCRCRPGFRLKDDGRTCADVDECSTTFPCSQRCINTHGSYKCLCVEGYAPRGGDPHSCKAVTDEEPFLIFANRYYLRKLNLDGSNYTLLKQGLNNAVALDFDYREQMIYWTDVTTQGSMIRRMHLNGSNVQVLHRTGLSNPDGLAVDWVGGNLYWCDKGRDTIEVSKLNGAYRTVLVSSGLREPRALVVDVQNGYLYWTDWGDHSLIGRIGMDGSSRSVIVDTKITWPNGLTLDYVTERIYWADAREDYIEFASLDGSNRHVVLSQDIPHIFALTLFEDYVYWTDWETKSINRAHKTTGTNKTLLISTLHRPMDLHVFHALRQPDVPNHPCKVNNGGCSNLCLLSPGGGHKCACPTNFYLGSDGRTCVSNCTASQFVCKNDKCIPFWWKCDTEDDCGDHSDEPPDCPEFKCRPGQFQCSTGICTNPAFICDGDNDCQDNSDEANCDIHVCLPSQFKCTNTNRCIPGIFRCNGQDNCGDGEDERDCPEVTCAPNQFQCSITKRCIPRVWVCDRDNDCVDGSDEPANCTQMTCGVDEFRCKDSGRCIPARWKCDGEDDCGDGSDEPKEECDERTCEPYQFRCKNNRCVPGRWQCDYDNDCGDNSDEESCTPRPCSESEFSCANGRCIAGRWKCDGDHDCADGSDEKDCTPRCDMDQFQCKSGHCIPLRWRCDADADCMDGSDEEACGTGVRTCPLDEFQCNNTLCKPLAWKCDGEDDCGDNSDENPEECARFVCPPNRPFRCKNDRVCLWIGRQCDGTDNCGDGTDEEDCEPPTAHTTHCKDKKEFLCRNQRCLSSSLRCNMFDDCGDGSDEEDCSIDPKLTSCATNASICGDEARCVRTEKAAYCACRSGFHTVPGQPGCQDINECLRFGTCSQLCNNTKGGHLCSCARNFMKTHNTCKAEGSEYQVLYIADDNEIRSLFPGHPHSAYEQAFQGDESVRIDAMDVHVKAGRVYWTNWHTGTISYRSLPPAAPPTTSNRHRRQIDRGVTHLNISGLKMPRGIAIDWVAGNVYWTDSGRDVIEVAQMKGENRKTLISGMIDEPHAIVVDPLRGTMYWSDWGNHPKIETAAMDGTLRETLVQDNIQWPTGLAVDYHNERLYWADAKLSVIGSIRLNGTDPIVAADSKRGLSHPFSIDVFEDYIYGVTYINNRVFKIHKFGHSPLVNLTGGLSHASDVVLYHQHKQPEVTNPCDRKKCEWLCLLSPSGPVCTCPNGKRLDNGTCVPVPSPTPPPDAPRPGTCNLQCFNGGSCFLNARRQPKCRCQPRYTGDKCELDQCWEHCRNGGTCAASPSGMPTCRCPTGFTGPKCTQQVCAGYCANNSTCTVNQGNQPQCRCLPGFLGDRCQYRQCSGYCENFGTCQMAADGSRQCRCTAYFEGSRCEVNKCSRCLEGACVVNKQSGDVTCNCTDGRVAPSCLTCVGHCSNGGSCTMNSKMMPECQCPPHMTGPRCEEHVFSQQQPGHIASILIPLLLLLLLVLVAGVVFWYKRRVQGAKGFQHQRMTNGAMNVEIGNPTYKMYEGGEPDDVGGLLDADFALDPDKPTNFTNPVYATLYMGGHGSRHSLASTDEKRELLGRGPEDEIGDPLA

Substance: RAP-GAA fusion (human RAP fused N-terminally to human alpha-glucosidase)
- Kuptake ratio (fusion/enzyme), RAP-GAA against rhGAA, fibroblast (ratio (fusion/enzyme)) (LRP): 25
- Uptake ratio (fusion/enzyme), RAP-GAA against rhGAA, C2C12 myoblast, 5 nM (ratio (fusion/enzyme)) (LRP): 18
- Uptake ratio (fusion/enzyme), RAP-GAA against rhGAA, C6 glioma, 5 nM (ratio (fusion/enzyme)) (LRP): 8
- Uptake ratio (fusion/enzyme), RAP-GAA against rhGAA, fibroblast, 5 nM (ratio (fusion/enzyme)) (LRP): 9
- Uptake ratio (fusion/enzyme), RAP-GAA against rhGAA, fibroblast, 50 nM (ratio (fusion/enzyme)) (LRP): 37
- Uptake ratio (fusion/enzyme), RAP-GAA against rhGAA, fibroblast, saturation (ratio (fusion/enzyme)) (LRP): 70
- Kuptake, uptake into GM244 fibroblasts measured by GAA enzyme activity [1]: 19 nM
- percent of RAP-GAA uptake into GM244 fibroblasts inhibited by free RAP [1]: 90%
- uptake into GM244 fibroblasts relative to recombinant GAA (Vmax ratio) [1]: 60 fold
- uptake into GM244 fibroblasts relative to recombinant GAA at 10 nM [1]: 25 fold
- percent of RAP-GAA uptake into GM244 fibroblasts inhibited by mannose 6-phosphate [2]: 20%
